Consider two molecules from patent US20190263898A1 (UNIVERSITE GRENOBLE ALPES, published 2019).

Experiment [1] addresses T1, Tau protein in oligomer form (preparation of htau40 enriched with Tau oligomers, 48 h fibrillation with … (Homo sapiens (Human), UniProt P10636 2-758)).
T1 construct: Oligomeric aggregate of full-length htau40; also called the oligomers; low-molecular-weight tau polymers
Nature of the experiment: ELISA on preparation enriched with Tau oligomers. (ELISA stands for enzyme-linked immunosorbent assay.)

The target in experiment [2] is T2, native Tau protein (monomeric form) (Homo sapiens (Human), UniProt P10636 2-758).
T2 construct: also called Tau-N (native taus); Tau in monomer form
Nature of the experiment: ELISA, 2C5 titrated on native Tau (Tau-N).

Experiment [3] has as its target T3, truncated Tau protein in fiber form (polymerized R3 peptide) (also: polymerized (fiber form)).
T3 construct: also called R3 peptide fibers; Mimetics (the R3 region of polymerized Tau)
T3 peptide: VQIVYKPVDLSKVTSKCG
Nature of the experiment: ELISA on polymerized R3 peptide.

In experiment [4] the target is T1, Tau protein in oligomer form …. Nature of the experiment: ELISA, 2C5 titrated on a preparation enriched with Tau oligomers (Tau-O).
Experiment [5] concerns the target T3, truncated Tau protein in fiber form …. Nature of the experiment: ELISA, unlabeled 2C5 titrated on polymers of the R3 sequence of Tau (R3 Fibers), PBS with 1% BSA, pH 7.5; PBS wells as control. As for the experimental part: (§1) The ELISAs are carried out before (FIG. 5) and after (FIG. 6) radiolabeling. It is noted that, after radiolabeling, the ligand retains good affinity for its target (FIG. 6).

Experiment [6] shares this target. Nature of the experiment: ELISA, 2C5 titrated on polymerized R3 peptide (Mimes).
The target in experiment [7] is T4, Tau protein in fiber form (preparation of htau40 enriched with Tau fibers, 72 h fibrillation with heparin) (Homo sapiens (Human), UniProt P10636 2-758).
T4 construct: Fibrillar aggregate of full-length htau40; also called Tau-F (Tau fibers); the fibers
Nature of the experiment: ELISA on preparation enriched with Tau fibers.

The target of experiment [8] is T4, Tau protein in fiber form (preparation …). Nature of the experiment: ELISA, 2C5 titrated on a preparation enriched with Tau fibers (Tau-F).
Experiment [9] has as its target T3, truncated Tau protein in fiber form …. Nature of the experiment: ELISA-format assay with 2C5 radiolabeled with iodine 125 on polymers of the R3 sequence of Tau, CPM readout (sheet title: RIA 125I 2C5), PBS with 1% BSA, pH 7.5; PBS wells as control. As for the experimental part:
as §1

Ends that are not written are not given here.

T1 sequence (P10636 other isoform, or with tags, fused parts or gaps limits assumed): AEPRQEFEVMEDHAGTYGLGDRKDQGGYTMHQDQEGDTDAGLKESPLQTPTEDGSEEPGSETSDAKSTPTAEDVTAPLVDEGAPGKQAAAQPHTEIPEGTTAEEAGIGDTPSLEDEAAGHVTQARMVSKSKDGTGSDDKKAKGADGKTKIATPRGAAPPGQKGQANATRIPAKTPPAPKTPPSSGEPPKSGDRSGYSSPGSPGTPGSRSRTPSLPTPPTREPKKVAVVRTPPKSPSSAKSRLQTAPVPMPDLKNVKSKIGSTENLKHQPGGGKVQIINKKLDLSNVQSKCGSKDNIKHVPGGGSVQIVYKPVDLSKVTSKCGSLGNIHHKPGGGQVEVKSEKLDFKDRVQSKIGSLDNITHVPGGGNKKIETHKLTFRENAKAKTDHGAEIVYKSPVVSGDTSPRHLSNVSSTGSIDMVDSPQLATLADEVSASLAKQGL
T4 sequence (P10636 other isoform, or with tags, fused parts or gaps limits assumed): as above
T2 sequence (P10636 other isoform, or with tags, fused parts or gaps limits assumed): as above

B1: 2C5 nanobody (VHH) with C-terminal myc and six histidine residues tag (VHH)
VHH: QVQLVQSGGGLVQAGGSLRLSCAASGRTFSSDTLAWFRQAPGKEREFVASISPSGGVTYYEDSVKGRFTISRDNSKNTVLLQMNSLTPEDTAVYYCNRDPKYGNTRYWGQGTQVTVSS
notes: also called 2C5 Nb; 2C5 (VHH)
As a reminder, the Kd is the equilibrium constant for the complex coming apart. High values mean lower affinity, low ones higher affinity. As usually defined, the EC50 (read off the curve) is the concentration that produces a half-maximal response. Higher therefore signals a need for much substance. On to B1, for which the dissociation constant Kd in experiment [1] came to 0.005 µM; in experiment [2] it was 1.79 µM; in experiment [3] it was 0.05 µM; in [4], 0.00628 µM; in experiment [5] it was 0.0144 µM; in [6], 0.0518 µM. Also, the Kd in experiment [7] is 0.006 µM; in [8], 0.00502 µM. In addition, the “EC50 (read off the curve)” value in experiment [6] was approximately 0.05 µM.

B2: 2C5 nanobody radiolabeled with iodine 125 (VHH)
VHH: B1 VHH
modifications: radiolabeled with iodine 125 (site not stated)
In the case of B2, in [9], the Kd amounted to 0.162 µM.
